Source: article PMC4506093

How the values were obtained:
[1] = target: highly purified 26S proteasome, extracted from transformed HEK cells
[2] = target: highly purified 26S proteasome, extracted from transformed HEK cells; remark: listed apart in the source

inhibition of the caspase-like activity (50 micromol/L Z-LLE-AMC, after subtracting IDE's own cleavage) of 1 nanomol/L 26S proteasome by IDE up to 50 nanomol/L at 37°C; value at 50 nanomol/L IDE [1]: 60% | inhibition of the chymotryptic-like activity (50 micromol/L Suc-LLVY-AMC) of 1 nanomol/L 26S proteasome by IDE from 1 nanomol/L to 50 nanomol/L at 37°C; value at 50 nanomol/L IDE [2]: 55% | inhibition of the tryptic-like activity (50 micromol/L Boc-LLR-AMC) of 1 nanomol/L 26S proteasome by IDE from 1 nanomol/L to 50 nanomol/L at 37°C; value at 50 nanomol/L IDE [2]: 65 to 70%
Substance: recombinant IDE expressed in Spodoptera frugiperda (from UniProt P35559 1-1019) (enzyme)
